Drawing on publication PMC11392263, this text covers Kd for one substance.

The assay deals with purified 206 kDa rFn (recombinant fibronectin) (UniProt P02751). Kind of assay: SPR; Biacore T200, 25°C; rFn immobilised on CM5 chip at 8000 RU; rRlpA (0.016-0.500 μM) injected at 30 μl/min in 10 mM Hepes pH 7.4, 150 mM NaCl, 3 mM EDTA, 0.05% P20; 1:1 Langmuir model.
purified 206 kDa rFn (recombinant fibronectin), sequence (P02751 32-2477): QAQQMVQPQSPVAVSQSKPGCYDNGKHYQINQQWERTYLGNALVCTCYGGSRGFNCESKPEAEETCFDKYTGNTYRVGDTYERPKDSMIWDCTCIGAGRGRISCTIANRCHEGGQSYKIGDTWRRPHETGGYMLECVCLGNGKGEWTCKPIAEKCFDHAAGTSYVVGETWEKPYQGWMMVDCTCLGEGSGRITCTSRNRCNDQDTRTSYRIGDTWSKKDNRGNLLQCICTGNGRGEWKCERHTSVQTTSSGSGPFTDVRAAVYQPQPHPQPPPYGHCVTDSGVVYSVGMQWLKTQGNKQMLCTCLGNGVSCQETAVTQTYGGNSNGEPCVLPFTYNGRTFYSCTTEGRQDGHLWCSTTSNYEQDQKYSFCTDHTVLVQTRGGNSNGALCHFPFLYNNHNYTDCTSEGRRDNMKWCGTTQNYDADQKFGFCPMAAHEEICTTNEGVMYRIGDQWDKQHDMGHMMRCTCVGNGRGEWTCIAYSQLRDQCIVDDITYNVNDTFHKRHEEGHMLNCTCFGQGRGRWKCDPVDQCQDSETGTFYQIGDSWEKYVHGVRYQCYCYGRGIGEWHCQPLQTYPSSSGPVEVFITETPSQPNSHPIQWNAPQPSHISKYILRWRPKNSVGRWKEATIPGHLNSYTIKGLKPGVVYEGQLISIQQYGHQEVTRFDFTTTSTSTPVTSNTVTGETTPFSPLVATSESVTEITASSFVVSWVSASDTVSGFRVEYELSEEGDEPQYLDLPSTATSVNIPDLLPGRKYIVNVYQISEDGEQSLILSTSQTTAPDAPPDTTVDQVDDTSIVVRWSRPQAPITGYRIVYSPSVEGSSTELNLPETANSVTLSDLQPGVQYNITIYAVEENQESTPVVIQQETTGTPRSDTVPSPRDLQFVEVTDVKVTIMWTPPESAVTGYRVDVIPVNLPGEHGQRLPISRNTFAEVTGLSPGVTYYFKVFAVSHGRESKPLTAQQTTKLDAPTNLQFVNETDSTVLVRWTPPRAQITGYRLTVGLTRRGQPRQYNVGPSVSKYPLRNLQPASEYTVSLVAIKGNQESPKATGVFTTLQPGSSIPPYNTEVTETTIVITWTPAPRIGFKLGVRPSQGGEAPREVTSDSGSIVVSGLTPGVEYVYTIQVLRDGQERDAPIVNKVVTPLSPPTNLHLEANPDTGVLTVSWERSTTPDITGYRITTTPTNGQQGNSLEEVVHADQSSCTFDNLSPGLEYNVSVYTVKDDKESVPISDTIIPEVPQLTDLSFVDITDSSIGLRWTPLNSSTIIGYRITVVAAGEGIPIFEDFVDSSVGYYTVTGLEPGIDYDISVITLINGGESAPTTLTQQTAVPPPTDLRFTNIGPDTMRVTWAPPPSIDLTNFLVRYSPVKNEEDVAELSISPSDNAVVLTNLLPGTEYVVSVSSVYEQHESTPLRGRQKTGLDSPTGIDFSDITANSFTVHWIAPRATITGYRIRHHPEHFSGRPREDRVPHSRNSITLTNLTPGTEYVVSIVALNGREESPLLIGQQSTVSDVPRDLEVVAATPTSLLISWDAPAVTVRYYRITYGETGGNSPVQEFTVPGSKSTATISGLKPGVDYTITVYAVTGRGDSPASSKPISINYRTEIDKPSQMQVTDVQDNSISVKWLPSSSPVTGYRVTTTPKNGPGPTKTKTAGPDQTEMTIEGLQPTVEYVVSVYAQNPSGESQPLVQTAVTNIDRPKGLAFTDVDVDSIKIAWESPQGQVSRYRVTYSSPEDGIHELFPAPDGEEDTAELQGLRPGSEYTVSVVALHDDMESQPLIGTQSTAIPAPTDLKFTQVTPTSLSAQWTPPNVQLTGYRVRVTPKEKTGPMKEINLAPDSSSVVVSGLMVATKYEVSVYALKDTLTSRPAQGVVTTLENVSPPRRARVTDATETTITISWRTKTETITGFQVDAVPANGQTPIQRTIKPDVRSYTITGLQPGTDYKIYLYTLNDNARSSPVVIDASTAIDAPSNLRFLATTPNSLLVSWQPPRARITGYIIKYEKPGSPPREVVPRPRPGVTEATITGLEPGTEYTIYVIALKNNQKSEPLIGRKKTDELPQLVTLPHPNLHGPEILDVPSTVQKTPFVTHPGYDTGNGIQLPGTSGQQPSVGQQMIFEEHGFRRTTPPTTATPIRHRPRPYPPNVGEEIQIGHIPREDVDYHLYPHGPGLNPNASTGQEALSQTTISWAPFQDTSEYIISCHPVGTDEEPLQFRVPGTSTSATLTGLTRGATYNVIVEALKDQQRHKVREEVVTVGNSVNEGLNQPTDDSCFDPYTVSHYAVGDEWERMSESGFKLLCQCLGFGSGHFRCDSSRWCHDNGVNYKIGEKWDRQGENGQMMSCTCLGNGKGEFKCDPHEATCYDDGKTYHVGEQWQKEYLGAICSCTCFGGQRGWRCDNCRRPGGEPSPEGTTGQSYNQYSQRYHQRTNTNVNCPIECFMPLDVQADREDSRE

Regarding “GST-tagged RlpA recombinant protein (rare lipoprotein A of Glaesserella parasuis serotype 4) (natural protein; other documents disagree on this pair)”, the Kd (commonly the equilibrium constant for the complex coming apart) turned out to be 1.6 nM.
